# Measurements taken from the DeepSol protein solubility set.
# Experiment: soluble on expression in E. coli; label from the status in PepcDB or PDB records
row,Sequence,soluble on expression in E. coli
1,MTFYYQRLAQQIAHKIYQQQLLPQQKLSSLRDFATQHQVSISTAKSCYEWLEAQGLIYVKPKSGYFVKPKSNVSRLPVSPEFESMPRQVSNLMLQNQIQEASIQNHLIPFGAIQLSPELVPIDGLRRSIQRALKYCKPEDFLYCEKQGHLRLRQALSEHWREDGIYVAPNDIFITNGCMPALSLLIQQLSREGDSILIPTPTFNGQLQLLAGLNRHIIEIPADHTGIDLLRLEQAMQMHQPKLCLLTANYQNPLGYCLADEDKQKIAQLAARYQCIILEDDIYAECSHHGQRPRPIKYWDEAGYVIWVSSVSKSLSSAYRVGWFCIGSQLEPMRPRFLSHNMTVNTPLQLALADFIFSRGYRRHLNQLHPRLMQQVEAYRDVILNAFAPLTIGLSQPQGGYALWLELPDNINSVTLYEVAQQQGISIVPGTVFGEDQRYGHFIRLSVGHALQNEHHAAIIFLADWVKQHC,not soluble
2,MSTSHDRAVLNQILNPLMPTSDSGIAEIHLESDSLEHPGYELSLQLEREGVALAEGVRLDEAIEKFTKALEVCPKNPSAYNNRAQAYRLQNKPEKALDDLNEALSLAGPKTKTACQAYVQRASIYRLRGDDDKARTDFASAAELGSSFAKMQLVALNPYAAMCNKMLAEVFEKAKTGED,soluble
3,STTLTHRARRTEISKNSEKKMESEEDSNWEKSPDNEDSGDSKDIRLTLMEEVLLLGLKDKEGYTSFWNDCISSGLRGGILIELAMRGRIYLEPPTMRKKRLLDRKVLLKSDSPTGDVLLDETLKHIKATEPTETVQTWIELLTGETWNPFKLQYQLRNVRERIAKNLVEKGILTTEKQNFLLFDMTTHPVTNTTEKQRLVKKLQDSVLERWVNDPQRMDKRTLALLVLAHSSDVLENVFSSLTDDKYDVAMNRAKDLVELDPEVEGTKPSATEMIWAVLAAFNKS,soluble
4,MGSDKIHHHHHHMQATRESRLIFNINLIYGRLQRNCYGLVALLLCFTSTSAAALDSPVFYKIEYQQQQAYLLGSIHVGRQDFYPLAQHIESAFKQSDALVVEADISQGDTGALLQRYGGLPAEIAADVNATRQEYCQSHQTLCQALAPYAPWLQSAQISMGRFGQLGYSAEQGVDAYFMANRSGKNVVELESIQFQFELISSFSTATQLQMLDDSINASDAEMLDLIYAWRQGDGNALANIMESQAGDADELLEKLLWQRNHTMAQKIIQLLQSKTHKQLFIVVGAGHIVGQQAIPDLLKQQGATITRCSFLQC,not soluble
5,EMTDLQSTHKNFLFEIEEVGIKNLTYPVLIDQYQTAGLFSFSTSLNKNEKGINMSRILESVEKHYDNGIELEFNTLHQLLRTLQDKMNQNAAGVDVSGKWFFDRYSPVTNIKAVGHADVTYGLAIENHTVTRKELTIQAKVTTLCPCSKEISEYSAHNQRGIVTVKAYLDKNNDVIDDYKDKILDAMEANASSILYPILKRPDEKRVTERAYENPRFVEDLIRLIAADLVEFDWIEGFDIECRNEESIHQHDAFARLKYRK,not soluble
6,MDYTASYYTDEELAKLFKAAKGDPLELPIVLAAYYGLRRSEIIGLRWDAIDFNPDDPKITIQFTVTEVNFGDGQGNVIIEKEGTKSKASKRTLPLVKPIADLLLQKKKDIENNRRLCGSCYNDKYLDFVHVNEIGERMKPNYISQHFALLLEKHGLKKIRFHDLRHSCASLLYANGVSLKQIQEWLGHSDISTTANIYTHLDYNSKIATANAILPVLFDQLEHHHHHH,not soluble
7,MSLSKHSHYKDKKKFYKKVEQFKEFQERISVHFQNEKLLYQAFTHSSYVNEHRKKPYEDNERLEFLGDAVLELTISRFLFAKYPAMSEGDLTKLRAAIVCEPSLVSLAHELSFGDLVLLGKGEEMTGGRKRPALLADVFEAFIGALYLDQGLEPVESFLKVYVFPKINDGAFSHVMDFKSQLQEYVQRDGKGSLEYKISNEKGPAHNREFEAIVSLKGEPLGVGNGRSKKEAEQHAAQEALAKLQKHHTKQEGGSHHHHHH,soluble
8,MSLQHNGHSYTVEGLINDSTLNGQTLYISRYDDGMKVDSTQVTNGQFKFTGKADIPCFCRIDAGREYANFILEGGNIQVNVLTHNDPKGTPMNEEYTHISDKTSELVTELRKRHAAIEQQTEDKSEQLRLKKEYADTYWHPTYTRLYKDMFMKNPDNALGEFAIRELAMCALPEEMDTIFAASGPWLKSLSVYHRIEKQFQGMKATAVGQKFTDFSGKTIDGAASSLSDFVGKGQYTLVDFWASWCGPCRSESPHIAELYNTYKDKGLTVLGVAVWDKPENTKKAIKELNIDWPQIIDTGMTPMDLYGVKGIPFILLFGPDGTIIARDLRGEGMKNKVAEVLNNKEGHHHHHH,soluble
9,KQKRARLIYNPTSGQEIMKKNVAEVLDILESFGYETSAFQTTPRADSAKNEAARASQAGFDLVIAAGGDGTINEVVSGIAPLKRRPKVAIIPTGTTNDFARALKIPRGNPVEATKLIGKNQTIHMDIGRAYND,not soluble
